{
  "source": "paper PMC8567204",
  "origin": "cited, not measured here",
  "key": {"[1]": {"biological_target": "Fyn (native) SH3 (UniProt P06241)", "sequence (P06241 82-143)": "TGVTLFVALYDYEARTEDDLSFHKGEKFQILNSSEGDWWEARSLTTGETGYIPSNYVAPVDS"}, "[2]": {"biological_target": "Fyn (unfolded) SH3 (UniProt P06241)", "sequence (P06241 82-143)": "as above"}, "[3]": {"biological_target": "Trigger factor (Escherichia coli) (UniProt P0A850)"}, "[4]": {"biological_target": "HscB (Escherichia coli) (UniProt P0A6L9)", "sequence (P0A6L9 whole entry)": "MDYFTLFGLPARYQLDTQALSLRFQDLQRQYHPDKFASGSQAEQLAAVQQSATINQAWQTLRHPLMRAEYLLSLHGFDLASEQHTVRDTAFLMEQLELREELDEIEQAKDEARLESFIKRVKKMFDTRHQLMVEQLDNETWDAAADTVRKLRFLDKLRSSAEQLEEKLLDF"}, "[5]": {"biological_target": "HscA (Escherichia coli) (UniProt P0A6Z1)", "sequence (P0A6Z1 whole entry)": "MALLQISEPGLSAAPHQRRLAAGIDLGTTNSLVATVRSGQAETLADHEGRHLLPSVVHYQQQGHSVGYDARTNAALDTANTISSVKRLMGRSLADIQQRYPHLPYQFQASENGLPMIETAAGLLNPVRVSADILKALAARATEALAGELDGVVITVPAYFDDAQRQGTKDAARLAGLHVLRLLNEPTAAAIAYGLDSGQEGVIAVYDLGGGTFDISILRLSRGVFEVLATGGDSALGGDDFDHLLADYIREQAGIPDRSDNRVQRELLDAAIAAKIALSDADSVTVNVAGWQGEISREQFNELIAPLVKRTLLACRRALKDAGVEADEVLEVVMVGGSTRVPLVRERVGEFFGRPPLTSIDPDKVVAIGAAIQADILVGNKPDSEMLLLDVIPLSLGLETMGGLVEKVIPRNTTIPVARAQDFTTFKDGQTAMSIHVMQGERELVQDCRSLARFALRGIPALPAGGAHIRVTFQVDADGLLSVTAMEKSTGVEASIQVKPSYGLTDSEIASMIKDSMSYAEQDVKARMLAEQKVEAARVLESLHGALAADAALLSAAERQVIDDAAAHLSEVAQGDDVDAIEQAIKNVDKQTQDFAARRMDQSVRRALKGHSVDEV"}, "[6]": {"biological_target": "HscA (Escherichia coli) (UniProt P0A6Z1)", "remark": "listed apart in the source"}},
  "note": "Read-outs that look alike come from different tables or passages of the source.",
  "data": [
    {"substance": "Spy (from UniProt P77754)", "values": [
      {"measurement": "Kd", "setting": "[1]", "value": 50, "unit": "µM"},
      {"measurement": "Kd", "setting": "[2]", "value": 3, "unit": "µM"}
    ]},
    {"substance": "Trigger factor (from UniProt P0A850)", "values": [
      {"measurement": "Kd", "setting": "[3]", "value": 2, "unit": "µM"}
    ]},
    {"substance": "apo-IscU (from UniProt P0ACD4)", "values": [
      {"measurement": "Kd", "setting": "[4]", "value": 11, "unit": "µM"},
      {"measurement": "Kd", "setting": "[5]", "value": 37, "unit": "µM"},
      {"measurement": "Kd", "setting": "[6]", "value": 9, "unit": "µM"}
    ]}
  ]
}
